Drawing on US20190284258A1, “HAEMADIPSA SYLVESTRIS ANTITHROMBOTIC PEPTIDE SYLVESTIN AND USE THEREOF” (priority 2016, published 2019), this text covers Ki for 1 substance.

The assay has as its target FXIIa. The experiment in a line: enzyme inhibition kinetics, chromogenic substrate, OD 405 nm.

Sequence of FXIIa (P00748 20-372, chain 1 of 2): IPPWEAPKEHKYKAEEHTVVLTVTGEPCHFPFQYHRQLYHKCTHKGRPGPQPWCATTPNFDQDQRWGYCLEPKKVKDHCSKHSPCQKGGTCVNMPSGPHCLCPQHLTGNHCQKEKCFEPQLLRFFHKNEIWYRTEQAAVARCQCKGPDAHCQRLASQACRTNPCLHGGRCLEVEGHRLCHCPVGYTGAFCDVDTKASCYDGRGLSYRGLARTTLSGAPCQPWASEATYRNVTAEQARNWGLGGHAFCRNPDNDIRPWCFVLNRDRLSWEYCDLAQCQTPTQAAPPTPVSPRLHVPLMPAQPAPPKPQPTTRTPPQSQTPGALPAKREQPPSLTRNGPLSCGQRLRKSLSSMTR
Sequence of FXIIa (P00748 373-615, chain 2 of 2): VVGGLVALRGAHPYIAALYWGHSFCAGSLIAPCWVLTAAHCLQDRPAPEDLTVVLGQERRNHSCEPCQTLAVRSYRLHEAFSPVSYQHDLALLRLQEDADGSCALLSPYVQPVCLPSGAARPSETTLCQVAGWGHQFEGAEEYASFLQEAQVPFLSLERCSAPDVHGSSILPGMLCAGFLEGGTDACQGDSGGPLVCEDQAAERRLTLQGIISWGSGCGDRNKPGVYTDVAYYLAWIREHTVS

Consider “Haemadipsa sylvestris antithrombotic peptide Sylvestin”, for which the Ki was found to be 2900 nM.

One may read the Ki as the equilibrium dissociation constant of an inhibitor or competing ligand from its target. Read a low Ki as a stronger hold on the target.
